“Also recorded” adds a separate entry of the source.
B1: GPM: Y. lipolytica phosphoglycerate mutase promoter, SEQ ID NO:160 (nucleic acid, listed as Yarrowia lipolytica)
DNA: GCCTCTGAATACTTTCAACAAGTTACACCCTTCATTAATTCTCACGTGACACAGATTATTAACGTCTCGTACCAACCACAGATTACGACCCATTCGCAGTCACAGTTCACTAGGGTTTGGGTTGCATCCGTTGAGAGCGGTTTGTTTTTAACCTTCTCCATGTGCTCACTCAGGTTTTGGGTTCAGATCAAATCAAGGCGTGAACCACTTTGTTTGAGGACAAATGTGACACAACCAACCAGTGTCAGGGGCAAGTCCGTGACAAAGGGGAAGATACAATGCAATTACTGACAGTTACAGACTGCCTCGATGCCCTAACCTTGCCCCAAAATAAGACAACTGTCCTCGTTTAAGCGCAACCCTATTCAGCGTCACGTCATAATAGCGTTTGGATAGCACTAGTCTATGAGGAGCGTTTTATGTTGCGGTGAGGGCGATTGGTGCTCATATGGGTTCAATTGAGGTGGCGGAACGAGCTTAGTCTTCAATTGAGGTGCGAGCGACACAATTGGGTGTCACGTGGCCTAATTGACCTCGGGTCGTGGAGTCCCCAGTTATACAGCAACCACGAGGTGCATGGGTAGGAGACGTCACCAGACAATAGGGTTTTTTTTGGACTGGAGAGGGTTGGGCAAAAGCGCTCAACGGGCTGTTTGGGGAGCTGTGGGGGAGGAATTGGCGATATTTGTGAGGTTAACGGCTCCGATTTGCGTGTTTTGTCGCTCCTGCATCTCCCCATACCCATATCTTCCCTCCCCACCTCTTTCCACGATAATTTTACGGATCAGCAATAAGGTTCCTTCTCCTAGTTTCCACGTCCATATATATCTATGCTGCGTCGTCCTTTTCGTGACATCACCAAAACACATACAAAAATG
modifications: misc_feature: Promoter GPM
B2: GPAT: Y. lipolytica glycerol-3-phosphate acyltransferase promoter, SEQ ID NO:164 (nucleic acid, listed as Yarrowia lipolytica)
DNA: CAACTTTTCTTGTCGACCTGAGATACCGAGGTTGCGCAGGGGATCAACTTTTGTGTCTCAGAGGGACCCAAGTGCGTACGGAGAGTACAGTACATACTGTAGCTAACGGTAGCAGGCGAACTACTGGTACATACCTCCCCCGGAATATGTACAGGCATAATGCGTATCTGTGGGACATGTGGTCGTTGCGCCATTATGTAAGCAGCGTGTACTCCTCTGACTGTCCATATGGTTTGCTCCATCTCACCCTCATCGTTTTCATTGTTCACAGGCGGCCACAAAAAAACTGTCTTCTCTCCTTCTCTCTTCGCCTTAGTCTACTCGGACCAGTTTTAGTTTAGCTTGGCGCCACTGGATAAATGAGACCTCAGGCCTTGTGATGAGGAGGTCACTTATGAAGCATGTTAGGAGGTGCTTGTATGGATAGAGAAGCACCCAAAATAATAAGAATAATAATAAAACAGGGGGCGTTGTCATTTCATATCGTGTTTTCACCATCAATACACCTCCAAACAATGCCCTTCATGTGGCCAGCCCCAATATTGTCCTGTAGTTCAACTCTATGCAGCTCGTATCTTATTGAGCAAGTAAAACTCTGTCAGCCGATATTGCCCGACCCGCGACAAGGGTCAACAAGGTGGTGTAAGGCCTTCGCAGAAGTCAAAACTGTGCCAAACAAACATCTAGAGTCTCTTTGGTGTTTCTCGCATATATTTAATCGGCTGTCTTACGTATTTGGCCTCGGTACCGGACTAATTTCGGATCATCCCCAATACGCTTTTTCTTCGCAGCTGTCAACAGTGTCCATGATCTATCCACCTAAATGGGTCATATGAGGCGTATAATTTCGTGGTGCTGATAATAATTCCCATATATTTGACACAAAACTTCCCCCCCTAGACATACATCTCACAATCTCACTTCTTGTGCTTCTGTCACACATCTCCTCCAGCTGACTTCAACTCACACCTCTGCCCCAGTTGGTCTACAGCGGTATAAGGTTTCTCCGCATAGAGGTGCACCACTCCTCCCGATACTTGTTTGTGTGACTTGTGGGTCACGACATATATATCTACACACATTGCGCCACCCTTTGGTTCTTCCAGCACAACAAAAACACGACACGCTAA
modifications: misc_feature: Promoter GPAT
B3: TEF: Y. lipolytica translation elongation factor EF1-α promoter, SEQ ID NO:166 (nucleic acid, listed as Yarrowia lipolytica)
DNA: GACCGGGTTGGCGGCGTATTTGTGTCCCAAAAAACAGCCCCAATTGCCCCAATTGACCCCAAATTGACCCAGTAGCGGGCCCAACCCCGGCGAGAGCCCCCTTCACCCCACATATCAAACCTCCCCCGGTTCCCACACTTGCCGTTAAGGGCGTAGGGTACTGCAGTCTGGAATCTACGCTTGTTCAGACTTTGTACTAGTTTCTTTGTCTGGCCATCCGGGTAACCCATGCCGGACGCAAAATAGACTACTGAAAATTTTTTTGCTTTGTGGTTGGGACTTTAGCCAAGGGTATAAAAGACCACCGTCCCCGAATTACCTTTCCTCTTCTTTTCTCTCTCTCCTTGTCAACTCACACCCGAAATCGTTAAGCATTTCCTTCTGAGTATAAGAATCATTCAAAGGATCCACTAGTTCTAGAGCGGCCGCTTAAACC
modifications: misc_feature: Promoter TEF

How the values were obtained:
Type in all cases: cell-based, Yarrowia lipolytica
[1] = tested on: β-glucuronidase (GUS) reporter; experiment: Comparative analysis of promoters by histochemical analysis of GUS expression
Procedure: Comparative studies investigating the promoter activities of the TEF, GPD, GPDIN, GPM, GPAT, FBA, FBAIN and YAT1 promoters were performed, by synthesizing constructs comprising each promoter and the E. coli gene encoding β-glucuronidase (GUS) as a reporter gene (Jefferson, R. A. Nature. 14(342):837-838 (1989)). Then, GUS activity was measured by histochemical and fluorometric assays (Jefferson, R. A. Plant Mol. Biol. Reporter 5:387-405 (1987)) and/or by using Real Time PCR for mRNA quantitation.
Yarrowia lipolytica ATCC #76982 strains containing plasmids pY5-30, pYZGDG, pYZGMG, pDMW212 and pDMW214 were grown from single colonies in 3 mL MM at 30° C. to an OD600˜1.0. Then, 100 μl of cells were collected by centrifugation, resuspended in 100 μl of histochemical staining buffer, and incubated at 30° C. Staining buffer was prepared by dissolving 5 mg of 5-bromo-4-chloro-3-indolyl glucuronide (X-Gluc) in 50 μl dimethyl formamide, followed by the addition of 5 mL 50 mM NaPO4, pH 7.0.
In a separate experiment, Y. lipolytica Y2034 strains containing plasmids pY5-30, pYGPAT-GUS, pYAT-GUS and pDMW214 were grown from single colonies in 5 mL SD media at 30° C. for 24 hrs to an OD600˜8.0. Then, 1 mL of cells were collected by centrifugation. The remaining cultures were centrifuged and washed 2× with HGM, resuspended in 5 mL each of HGM and allowed to grow at 30° C. further. After 24 and 120 hrs, ˜0.25 mL of each culture were centrifuged to collect the cells. Cell samples were resuspended individually in 100 μl of histochemical staining buffer (supra). Zymolase 20T (5 μl of 1 mg/mL; ICN Biomedicals, Costa Mesa, Calif.) was added to each, and the mixture incubated at 30° C. […]

[2] = tested on: β-glucuronidase (GUS) reporter; experiment: Relative promoter activity rank from comparative GUS reporter studies (histochemical, fluorometric and/or Real Time PCR); parameters: key: a ‘1’ corresponds to the promoter with lowest activity; a ‘7’ corresponds to the promoter with highest activity; settings: relative to other promoters
Procedure: The activity of GPM is about the same as TEF, while the activity of GPD, FBA, FBAIN, FBAINm, GPDIN, GPAT, YAT1 and EXP1 are all greater than TEF (activity is quantified in a relative manner in the column titled “Activity Rank”, wherein a ‘1’ corresponds to the promoter with lowest activity, while a ‘7’ corresponds to the promoter with highest activity). […] GUS activity in each expressed construct was measured by histochemical and/or fluorometric assays (Jefferson, R. A. Plant Mol. Biol. Reporter 5:387-405 (1987)) and/or by use of Real Time PCR.

[3] = tested on: β-glucuronidase (GUS) reporter; experiment: Comparative analysis of promoters by fluorometric assay of GUS expression
Procedure: GUS activity was also assayed by fluorometric determination of the production of 4-methylumbelliferone (4-MU) from the corresponding substrate β-glucuronide (Jefferson, R. A. Plant Mol. Biol. Reporter 5:387-405 (1987)).
Yarrowia lipolytica ATCC #76982 strains containing plasmids pY5-30, PYZGDG, PYZGMG, pDMW212 and pDMW214 were grown from single colonies in 3 mL MM (as described above) at 30° C. to an OD600˜1.0. Then, the 3 mL cultures were each added to a 500 mL flask containing 50 mL MM and grown in a shaking incubator at 30° C. for about 24 hrs. The cells were collected by centrifugation, resuspended in Promega Cell Lysis Buffer and lysed using the BIO 101 Biopulverizer system (Vista, Calif.). After centrifugation, the supernatants were removed and kept on ice.
Similarly, Y. lipolytica strain Y2034 containing plasmids pY5-30, pYAT-GUS, pYGPAT-GUS and pDMW214 constructs, respectively, were grown from single colonies in 10 mL SD medium at 30° C. for 48 hrs to an OD600˜5.0. Two mL of each culture was collected for GUS activity assays, as described below, while 5 mL of each culture was switched into HGM.
Specifically, cells from the 5 mL aliquot were collected by centrifugation, washed once with 5 mL of HGM and resuspended in HGM. The cultures in HGM were then grown in a shaking incubator at 30° C. for 24 hrs. Two mL of each HGM culture were collected for the GUS activity assay, while the remaining culture was allowed to grow for an additional 96 hrs before collecting an additional 2 mL of each culture for the assay.
Each 2 mL culture sample in SD medium was resuspended in 1 mL of 0.5× cell culture lysis reagent (Promega). Resuspended cells were mixed with 0.6 mL of glass beads (0.5 mm diameter) in a 2.0 mL screw cap tube with a rubber O-ring. The cells were then homogenized in a Biospec mini beadbeater (Bartlesville, Okla.) at the highest setting for 90 sec. The homogenization mixtures were centrifuged for 2 min at 14,000 rpm in an Eppendof centrifuge to remove cell debris and beads. The supernatant was used for GUS assay and protein determination.
For each fluorometric assay, 100 μl of extract was added to […] of GUS assay buffer (2 mM 4-methylumbelliferyl-β-D-glucuronide (“MUG”) in extraction buffer) or 200 μl of extract was added to 800 μl of GUS assay buffer. The mixtures were placed at 37° C. Aliquots of 100 μl were taken at 0, 30 and 60 min time points and added to 900 μl of stop buffer (1 M Na2CO3). Each time point was read using a CytoFluor Series 4000 Fluorescence Multi-Well Plate Reader (PerSeptive Biosystems, Framingham, Mass.) set to an excitation wavelength of 360 nm and an emission wavelength of 455 nm. Total protein concentration of each sample was determined using 10 μl of extract and 200 μl of BioRad Bradford reagent or 20 μl of extract and 980 μl of BioRad Bradford reagent (Bradford, M. M. Anal. Biochem. 72:248-254 (1976)). GUS activity was expressed as nmoles of 4-MU per minute per mg of protein.

[4] = ATCC #76982 strains, MM, FIG. 5B

Molecule	promoter activity by histochemical staining [1, 4]	Activity “Rank” [2]	promoter activity by histochemical staining ([1]; strain Y2034, 24 hr in SD medium, FIG. 5C)	GUS activity ([3]; strain Y2034, 24 hr, HGM)	GUS activity ([3]; strain Y2034, 48 hr, SD)	GUS activity ([3]; strain Y2034, 120 hr HGM)	reduction of promoter activity ([3]; switched from SD medium into HGM for 24 hrs)	increase of promoter activity ([3]; switched from SD medium into HGM and grown for 24 hrs)
B1	active	1	–	–	–	–	–	–
B2	–	5	active; also recorded: much stronger than the TEF promoter	2.969 nmoles of 4-MU per minute per mg of protein	5.252 nmoles of 4-MU per minute per mg of protein	3.050 nmoles of 4-MU per minute per mg of protein	40%	–
B3	active	1	–	0.942 nmoles of 4-MU per minute per mg of protein	0.401 nmoles of 4-MU per minute per mg of protein	0.466 nmoles of 4-MU per minute per mg of protein	–	2.3 fold
